From the DeepSol protein solubility set

test: soluble on expression in E. coli; label from the status in PepcDB or PDB records

Sequence | soluble on expression in E. coli
MLVSEMHGEVEAVKVGTEVQGRVLHWVYLYYYRNLLFDAGCPNTAQEVFEHFKGREIKAVLITHYHEDHIGAVNLFKEITDVYVPEESLEILRNPPDIPKYRKIGWGQPEKIEGVKVAKEVMKFDDVEVRMIKTPGHSFDHVSYLVDDKLFCGDLVINTAQMVCMREENLLKTIESIEKVLKYDFNYAYTGVGVASRDEVVEYLNYLKGLKEKAEMLYAEGKTIDEIVAACFPNPSQKAILMEFVSEKEWARENMVKSLLGLPRE | not soluble
MGSDKIHHHHHHMNGLDVLLSNNQNHHFYGVTIGVVTNNKDPKKLGRVKVKFPWLSSEEESYWARVVTLMAGNDRGIYFLPEVDDEVLVAFEQGDMNFPYILGALWNGKDKPPITNEDGKNNQRVIKSRSGHMIVLDDTEENEQIIIQDKTGKNKIVINSKENKMNIQVEKDLTIETKGKIILKSSDDDISIDCKNLQIKTQQNYQLEVGANCTIKAKSKYKLEAQSGLGIKCAAGVKINDGSLEVM | not soluble
MGSDKIHHHHHHMAYVPNPVNIGVVYTENAAVLVDSGLDESVPRKISRLLQKPPLYLINTHSHADHCGGNAFLKKRFSTRVFAPKMEKEIIENTVFEPFYLYGAYPPNELRNKFLMAEPSAVDEVIEEGTITIESVDLEIVPLSGHSTNQIGVAVDGVLFCADAVFSEETLRKHRIFVIYNVEKFLETLDFLEKTSYSYYVPSHGEVTRDIGELVEKNRKAVENIINAVLEITVNPLSTDELMKQLFDRFEITLENLTQYILYRSTVHAYLSFLLDRKEIEREFRNNVLVWRRC | not soluble
MAKVRIYQLAKELGMETQELLELLDQMGVAYKSHASTLEEKDAEAVRELVKEQRGLQEKLAEEERRKSLPRRPPVVVIMGHVDHGKTTLLDYLRKSRIAEKEAGGITQHVGAFEVKTPQGTVVFIDTPGHEAFTTIRQRGAKVADIAVIVIAADDGIMPQTEEAIAHAKAAGAKLIFAINKIDLPQADPEKVKRQLMERGFVPEEYGGDAIVIPISAKTGQGVQDLLEMILLLAELEDYRADPNAEPRGVILESKLDKQAGIIANMLVQEGTFRVGDYVVAGEAYGRIRAMMDADGNQRKEAGPGSAVQVLGFQELPHAGDVVEWVPDLEAAKEIAEERKEERKAREEEEKARRPRTMAELLRAMQEEGRKELNLILRADTQGSLEAIQHILARESTEDVKINILLAQVGAPTESDVLLAQTANAAILAFGVNPPGSVKKKAEEKGVLLKTFRIIYDLVDEVRNMVKGQREPQYKEEVLGQAEVRAIFRLPTGKQVAGCMVTQGRIPRNAEVRVLRDGQVIWQGRIASLKRFKEDVREVAQGYECGIGLDGFDDFREGDVIEAFQMVEVPA | soluble
MSVVIERIPKEAIPKSLLLLADPSERQIATYVQRGLTYVAKQGGSVIGVYVLLETRPKTMEIMNIAVAEHLQGKGIGKKLLRHAVETAKGYGMSKLEVGTGNSSVSQLALYQKCGFRIFSIDFDYFSKHYEEEIIENGIVCRDMIRLAMELNKNV | soluble
GGRALRVLVDMDGVLADFEGGFLRKFRARFPDQPFIALEDRRGFWVSEQYGRLRPGLSEKAISIWESKNFFFELEPLPGAVEAVKEMASLQNTDVFICTSPIKMFKYCPYEKYAWVEKYFGPDFLEQIVLTRDKTVVSADLLIDDRPDITGAEPTPSWEHVLFTACHNQHLQLQPPRRRLHSWADDWKAILDSKRPC | soluble
MGSDKIHHHHHHSRSTKGVRELSLFNRHTGEYNNGSYWVDGHYQSEVLADFSHLLRDHRQNVAAPMDKRLFDLLYTLKSTLNTDKEIHVISGYRSPKTNAMLAGKSGGVAKKSYHMQGMAMDIAIPGVNLKTIRDAALSLKLGGVGYYPKSGFVHVDCGPVRHW | not soluble
MSKNIVVAPSILSADFSRLGEEIKAVDEAGADWIHVDVMDGRFVPNITIGPLIVDAIRPLTKKTLDVHLMIVEPEKYVEDFAKAGADIISVHVEHNASPHLHRTLCQIRELGKKAGAVLNPSTPLDFLEYVLPVCDLILIMSVNPGFGGQSFIPEVLPKIRALRQMCDERGLDPWIEVDGGLKPNNTWQVLEAGANAIVAGSAVFNAPNYAEAIAGVRNSKRPEPQLATV | soluble
MSDVTNTWNERYDTEEFVYGREPNAFLAGVSAMMPPGDVLCLAEGEGRNAVFLARQGHRVLAVDASAVGLSKAARLAEEHGVRIETLTTDLADLVIEPGRWDAIVSIFCHVPPPVRRVLHRQAVAGLRPGGLFVLEAYTPAQLELRTGGPPTVELLMTLADLREELAGLEFLQAREIERDVVEGRLHTGRGAVVQIVARKPLEHHHHHH | soluble
MGSDKIHHHHHHMITAEECRTYKEFVDLYQSYLYPLLGARLSRMYSPKNKVIIDMGTGPGYLSIQLAKRTNAHVHAVDINPAMHEIAQEEAKKSGVSSLISFDLEDVHHLSYADQYADFIVSYSCLHHWEDVVKGLKECYRVLAPGGKIVILDTFNPQGSHLEIMRKQIKEPEYFRFVREAFEESYSFEDIHQFVQDAGIPNYSLETFHFLPEDFIESLDELEDAPLWEQNDQSTDHEIESVTWMLTIEKEKEGAL | not soluble
MSYYHHHHHHDYDIPTENLYFQGAMGRADPRNQRVLLDEYSRQRGQITAGGQLLAYSVATDGRFRFLRVYPNPEVYAPVTGFYSLRYSSTALERAEDPILNGSDRRLFGRRLADFFTGRDPRGGNVDTTINPRIQQAGWDAMQQGCYGPCKGAVVALEPSTGKILALVSSPSYDPNLLASHNPEVQAQAWQRLGDNPASPLTNRAISETYPPGSTFKVITTAAALAAGATETEQLTAAPTIPLPGSTAQLENYGGAPCGDEPTVSLREAFVKSCNTAFVQLGIRTGADALRSMARAFGLDSPPRPTPLQVAESTVGPIPDSAALGMTSIGQKDVALTPLANAEIAATIANGGITMRPYLVGSLKGPDLANISTTVGYQQRRAVSPQVAAKLTELMVGAEKVAQQKGAIPGVQIASKTGTAEHGTDPRHTPPHAWYIAFAPAQAPKVAVAVLVENGADRLSATGGALAAPIGRAVIEAALQGEP | soluble
MGSDKIHHHHHHMNRMNDALELVKKLRTFLPAESVLHETEDVRPYECDGLSAYRQTPMIVALPRTEDEVAGILKICDALKIPVVARGAGTGLSGGALPHPQGVLLSLAKLKNILEIDPAARTARVQPGVRNLAISEAAAPYGLYYAPDPSSQIACSIGGNVAENSGGVHCLKYGLTVHNILKLRVLTIEGELLEMGADGLDAPGYDLLALMTGSEGMLGIVTEVTVKLTPRPEKAQVVLASFDDIRDAGNAVANVIGAGIIPAGMEMMDKITTGAVEEYVHAGYNVEAAAILLCESDGAEEEVAEEIERINEIMRQSGATEVRISRDEAERARFWAGRKAAFPAAGRVSPDYYCMDGTIPRKNLASVLTGIEALSAEYGLRCMNVFHAGDGNLHPLILYDANHPGELELTEEFGAKILRMCIEAGGTITGEHGVGIEKINQMCSQFKTGELEMFHAVKAAFDPASLLNPGKAIPTLRRCAEQGAMHVHRGKEKFPELPRF | not soluble
MRTLTIEPLTKDAFAPFGDVIETDGSDHFMINNGSTMRFHRLAEVDTAQPDDKAIISIFRAESLPMPLTIGMLERHPQGSQAFIPLLGNPFLIVVAPVGDAPESALTRAFVSNGRQGVNYHRGVWHHPVLTIEKQDDFLVVDRSGSGNNCDEHYFEENQRLVLDPNPQEGLEHHHHHH | soluble
MSLADLEEALLIIDSDEDVSRHMKEHLTSRGFHVVHCASVKCFTDLKAQVTPDIIIGDLTSDDIKSLYSLLKDVHPRPPIVIHSKRADAENILGALRSGASDYIVKPVADVAVLDEAIQRQIDQVRVYRENQQYRYDLELANKELRAGLEELQADQRAGRHVQMKMLPEREVEYGGIQFDHCIKPSLYLSGDFFDYFRLSSDKIAFYFADVSGHGASSAFVTVLLKNLSNRLQRNLRRQSSDDILYPDRFLKRVNAELLDTDLGKHLTMFAGVIDLQTRVLSYSMGAHFPMPVMSVNGVSRYLDGKGPPVGLFDDPVYPLYEEPLAPGFSLVICSDGLLEVINAKSLAEKEQALLETVQEARHTIPELEKAFGLRWITELPDDIAIVSIMETTEGHHHHHH | soluble
MGSDKIHHHHHHMAKQQFNKLIWLVDTIFRNAPVTFAEINRRWRAGDDNRSDIPLRTFHNHRQAIEEIFDINIECDKRNNTYYIADAEGMLGDKLKMWLLNSFSLNNVLQENVDMKNRIVFEEVPSGVQFMDLVIDAMRSGRVLAMEYQAYNWEHSKDVLLEPYFVKLFRHRWYLIGINREYKAFRSYSLDRIKRIALSEETFNFPRKFTPQDHFRDSFGIIRDENLLPQHTVLRTTISQAPYLRNLPLHSSQKEIAVTESYVDFELYISHTYDFIQELLSKGAAVEVLKPQSLRDKIKAEIQNMQTLYHL | not soluble
MEKTSNTSKPLSRSEINKIIAVATGIKEKKIKEIFKYLNTLLLNELVSRSVCILPENLGKLRITIRNARYQKDMQTGEIRHIPPKPLVRYSPSKTIKETAAKVRWKYAD | soluble
MSLAEKPIKLGVLEDQSGDFAVATIGKVHAIQLAADEINKAGGIMGRPLELVVYDTQSDNTRYQEFMRRVLQRDKADAVFAGFSSASREAYRPIVDQLNGLAFYNNQYEGGVCDGHMIVTGAVPEQQFSTLIPWMMEKYGKKVYTLAADYNFGQISAEWVRNIVKQHGGEMAGVEFIPLGVSQFSQSIQNIQKAKPDFVVTLLVGTAQASYYEQAASANVNLPMASSVNVGQGYEHKRFKPPSLKDMYVTTNYIEEIDSPQSKAFLAKFKAKFPNEPYVNQEAENSYLAVYLYKQMVERAKSTNRDEIRKVIAQGDVCMDAPEGKVCIDPKSQHMSHTIYLAHVNADHSIDFPKVWPDIKPYWLGEAGCDLTKKDPMAQYTPSNEGHHHHHH | soluble
MAAKKDYYAILGVPRNATQEEIKRAYKRLARQYHPDVNKSPEAEEKFKEINEAYAVLSDPEKRRIYDTYGTTEAPPPPPPGGYDFSGFDVEDFSEFFQELFGPGLFGGFGRRSRKGRDLRAELPLTLEEAFHGGERVVEVAGRRVSVRIPPGVREGSVIRVPGMGGQGNPPGDLLLVVRLLPHPVFRLEGQDLYATLDVPAPIAVVGGKVRAMTLEGPVEVAVPPRTQAGRKLRLKGKGFPGPAGRGDLYLEVRITIPERLTPEEEALWKKLAEAYYARA | soluble
MPFTLGQRWISDTESELGLGTVVAVDARTVTLLFPSTGENRLYARSDSPVTRVMFNPGDTITSHDGWQMQVEEVKEENGLLTYIGTRLDTEESGVALREVFLDSKLVFSKPQDRLFAGQIDRMDRFALRYRARKYSSEQFRMPYSGLRGQRTSLIPHQLNIAHDVGRRHAPRVLLADEVGLGKTIEAGMILHQQLLSGAAERVLIIVPETLQHQWLVEMLRRFNLRFALFDDERYAEAQHDAYNPFDTEQLVICSLDFARRSKQRLEHLCEAEWDLLVVDEAHHLVWSEDAPSREYQAIEQLAEHVPGVLLLTATPEQLGMESHFARLRLLDPNRFHDFAQFVEEQKNYRPVADAVAMLLAGNKLSNDELNMLGEMIGEQDIEPLLQAANSDSEDAQSARQELVSMLMDRHGTSRVLFRNTRNGVKGFPKRELHTIKLPLPTQYQTAIKVSGIMGARKSAEDRARDMLYPERIYQEFEGDNATWWNFDPRVEWLMGYLTSHRSQKVLVICAKAATALQLEQVLREREGILAAVFHEGMSIIERDRAAAWFAEEDTGAQVLLCSEIGSEGRNFQFASHMVMFDLPFNPDLLEQRIGRLDRIGQAHDIQIHVPYLEKTAQSVLVRWYHEGLDAFEHTCPTGRTIYDSVYNDLINYLASPDQTEGFDDLIKSCREQHEALKAQLEQGRDRLLEIHSNGGEKAQALAESIEEQDDDTNLIAFAMNLFDIIGINQDDRGDNMIVLTPSDHMLVPDFPGLSEDGITITFDREVALAREDAQFITWEHPLIRNGLDLILSGDTGSSTISLLKNKALPVGTLLVELIYVVEAQAPKQLQLNRFLPPTPVRMLLDKNGNNLAAQVEFETFNRQLNAVNRHTGSKLVNAVQQDVHAILQLGEAQIEKSARALIDAARNEADEKLSAELSRLEALRAVNPNIRDDELTAIESNRQQVMESLDQAGWRLDALRLIVVTHQ | not soluble
